In the Human Domainome abundance scans (Beltran et al. 2025):
± gives the uncertainty stated by the source.

B1: Far upstream element-binding protein 3, residues 75 to 150; numbered along this chain, Q96I24 (parent)
chain: RTVITEEFKVPDKMVGFIIGRGGEQISRIQAESGCKIQIASESSGIPERPCVLTGTPESIEQAKRLLGQIVDRCRN

Variants of: B1
Experiment: abundance fitness (aPCA) (normalised: wild type 0, dead -1); higher = more abundant; growth selection in yeast, the domain comes from the species named
Conditions: Homo sapiens

Abundance fitness of substitutions, site by site:
G55: K -0.972 ± 0.063 | F -1.17 ± 0.16 | I -1.12 ± 0.2 | D -0.905 ± 0.077 | V -1.38 ± 0.066 | W -1.34 ± 0.076 | Q -1.18 ± 0.083 | L -1.39 ± 0.085 | S -0.827 ± 0.045 | H -1.22 ± 0.14 | N -0.989 ± 0.1 | Y -1.28 ± 0.17 | M -1.24 ± 0.1 | T -1.09 ± 0.078 | R -1.07 ± 0.041 | A -0.855 ± 0.04
Q62: G -0.055 ± 0.035 | I -0.043 ± 0.037 | N -0.041 ± 0.038 | D -0.005 ± 0.04 | R -0.043 ± 0.03 | M -0.023 ± 0.042 | Y -0.096 ± 0.044 | S -0.023 ± 0.03 | W -0.102 ± 0.044 | C -0.011 ± 0.033 | A -0.01 ± 0.033 | H -0.011 ± 0.037 | F -0.043 ± 0.038 | V -0.008 ± 0.033 | K -0.019 ± 0.043 | L -0.044 ± 0.03
L66: A -0.036 ± 0.033 | E -0.079 ± 0.034 | I -0.056 ± 0.074 | P -0.899 ± 0.07 | C -0.114 ± 0.051 | W -0.17 ± 0.033 | M -0.038 ± 0.04 | Q -0.072 ± 0.044 | G -0.134 ± 0.027 | H -0.148 ± 0.052 | R -0.061 ± 0.028 | V -0.115 ± 0.028 | Y -0.078 ± 0.06 | D -0.123 ± 0.049 | K -0.066 ± 0.046 | F -0.16 ± 0.07 | S -0.064 ± 0.033 | N -0.221 ± 0.062
L67: F -0.367 ± 0.064 | W -0.981 ± 0.059 | Y -1.04 ± 0.13 | K -0.834 ± 0.07 | H -0.908 ± 0.21 | A -0.845 ± 0.05 | T -0.666 ± 0.058 | I -0.131 ± 0.075 | S -0.811 ± 0.049 | C -0.397 ± 0.046 | G -0.864 ± 0.042 | P -0.649 ± 0.091 | D -0.884 ± 0.089 | E -0.757 ± 0.051 | N -0.884 ± 0.1 | Q -0.839 ± 0.085 | R -1.01 ± 0.051 | M -0.099 ± 0.046
R65: S -0.026 ± 0.035 | T -0.014 ± 0.047 | G -0.053 ± 0.026 | K 0.012 ± 0.044 | C -0.092 ± 0.043 | V -0.006 ± 0.029 | Y -0.046 ± 0.052 | A -0.031 ± 0.033 | E 0.013 ± 0.034 | F 0.017 ± 0.058 | I 0.057 ± 0.067 | D -0.031 ± 0.057 | L -0.017 ± 0.03 | Q -0.004 ± 0.04 | W -0.069 ± 0.029 | N 0.013 ± 0.059
E58: G -0.047 ± 0.03 | H -0.226 ± 0.087 | N -0.091 ± 0.093 | W -0.161 ± 0.04 | T -0.003 ± 0.048 | L -0.17 ± 0.038 | S -0.05 ± 0.039 | F -0.124 ± 0.086 | D -0.054 ± 0.062 | K 0.045 ± 0.073 | R -0.086 ± 0.031 | I -0.256 ± 0.082 | Q -0.066 ± 0.044 | P -0.108 ± 0.046 | V -0.107 ± 0.036 | M -0.128 ± 0.051 | A -0.025 ± 0.04
S59: K -0.161 ± 0.058 | Y -0.675 ± 0.077 | N -0.013 ± 0.082 | G -0.065 ± 0.028 | T -0.119 ± 0.046 | I -0.621 ± 0.13 | H -0.221 ± 0.062 | R -0.141 ± 0.028 | C -0.146 ± 0.047 | F -1.1 ± 0.26 | P -0.866 ± 0.067 | L -0.797 ± 0.047 | M -0.152 ± 0.044 | A -0.045 ± 0.032 | E -0.04 ± 0.043 | W -0.999 ± 0.061 | D -0.1 ± 0.058 | Q -0.014 ± 0.043 | V -0.284 ± 0.035
K64: W -0.578 ± 0.038 | E -0.388 ± 0.038 | L -0.491 ± 0.031 | M -0.336 ± 0.042 | Q -0.197 ± 0.039 | T -0.285 ± 0.035 | F -0.801 ± 0.079 | A -0.429 ± 0.031 | H -0.421 ± 0.058 | Y -0.505 ± 0.062 | C -0.453 ± 0.044 | I -0.275 ± 0.064 | V -0.35 ± 0.031 | R -0.095 ± 0.026 | S -0.416 ± 0.032 | P -1.14 ± 0.075 | D -0.89 ± 0.071 | G -0.658 ± 0.032
T54: V -0.044 ± 0.041 | F -0.378 ± 0.23 | D -0.187 ± 0.077 | H -0.01 ± 0.079 | L -0.129 ± 0.048 | W -0.269 ± 0.051 | G -0.512 ± 0.041 | I -0.065 ± 0.12 | A -0.11 ± 0.046 | K -0.033 ± 0.051 | N -0.1 ± 0.075 | E -0.071 ± 0.05 | Y -0.102 ± 0.071 | M -0.077 ± 0.05 | P -1.15 ± 0.12 | C -0.187 ± 0.066 | S -0.078 ± 0.045 | R -0.018 ± 0.034
G68: W -0.065 ± 0.037 | D -0.001 ± 0.048 | V -0.017 ± 0.032 | I -0.092 ± 0.061 | R -0.036 ± 0.029 | H -0.066 ± 0.071 | Y -0.045 ± 0.056 | C -0.066 ± 0.048 | L -0.046 ± 0.032 | N -0.043 ± 0.069 | S -0.065 ± 0.035 | M 0.001 ± 0.044 | P -0.723 ± 0.061 | F -0.17 ± 0.058 | E -0.026 ± 0.038 | A -0.066 ± 0.033 | T -0.06 ± 0.039
V52: Y -0.115 ± 0.056 | R -0.072 ± 0.029 | S -0.005 ± 0.036 | Q 0.043 ± 0.043 | T -0.044 ± 0.038
L53: Q -1.13 ± 0.12 | P -1.32 ± 0.17 | H -1.09 ± 0.35 | T -0.94 ± 0.077 | D -0.96 ± 0.13 | F -0.354 ± 0.084 | A -0.473 ± 0.045 | I -0.016 ± 0.077 | S -0.838 ± 0.065 | W -1.42 ± 0.13 | V -0.227 ± 0.033 | R -1.25 ± 0.066 | E -1.05 ± 0.073 | G -0.971 ± 0.044 | K -1.12 ± 0.1 | C -0.191 ± 0.062 | M -0.134 ± 0.045
I70: G -0.205 ± 0.027 | Y 0.044 ± 0.052 | C -0.023 ± 0.039 | F -0.044 ± 0.05 | W -0.102 ± 0.035 | P -0.335 ± 0.051 | R -0.024 ± 0.028 | D -0.209 ± 0.056 | V 0.024 ± 0.031 | Q -0.064 ± 0.043 | E -0.004 ± 0.035 | S -0.055 ± 0.034 | K -0.138 ± 0.044 | M -0.013 ± 0.04 | T 0.014 ± 0.046 | N -0.261 ± 0.087 | L -0.035 ± 0.034 | A 0.05 ± 0.034 | H -0.096 ± 0.055
P57: D -0.182 ± 0.055 | Y -0.133 ± 0.1 | K -0.009 ± 0.056 | I -0.131 ± 0.1 | V -0.06 ± 0.037 | E -0.045 ± 0.045 | S -0.109 ± 0.042 | M -0.111 ± 0.057 | W -0.073 ± 0.04 | G -0.113 ± 0.032 | T 0.006 ± 0.048 | L -0.112 ± 0.04 | C -0.143 ± 0.054 | R -0.013 ± 0.031 | A -0.013 ± 0.038 | N -0.1 ± 0.082 | F -0.103 ± 0.081 | Q -0.023 ± 0.049 | H -0.096 ± 0.08
I60: H -0.631 ± 0.071 | Q -0.806 ± 0.062 | E -0.877 ± 0.058 | P -1.1 ± 0.089 | S -0.836 ± 0.055 | V -0.025 ± 0.03 | F -0.754 ± 0.076 | Y -1 ± 0.12 | G -0.988 ± 0.038 | D -0.972 ± 0.082 | C -0.088 ± 0.048 | N -0.182 ± 0.07 | W -0.995 ± 0.059 | T -0.223 ± 0.043 | A -0.542 ± 0.037 | M -0.343 ± 0.046 | R -0.21 ± 0.028 | L -0.119 ± 0.033 | K -0.767 ± 0.065
T56: I -0.225 ± 0.059 | H -0.106 ± 0.051 | K -0.166 ± 0.04 | S -0.013 ± 0.031 | M -0.183 ± 0.038 | N -0.105 ± 0.055 | Q -0.127 ± 0.037 | Y -0.049 ± 0.05 | R -0.107 ± 0.027 | L -0.138 ± 0.031 | G -0.232 ± 0.025 | A -0.086 ± 0.032 | E -0.08 ± 0.032 | C -0.097 ± 0.04 | P -0.094 ± 0.036 | W -0.332 ± 0.033
Q69: D 0.021 ± 0.049 | K -0.046 ± 0.044 | G -0.012 ± 0.03 | F -0.181 ± 0.062 | C -0.076 ± 0.046 | W -0.283 ± 0.038 | R 0.005 ± 0.029 | I 0.02 ± 0.062 | H 0.021 ± 0.059 | P -0.156 ± 0.039 | V -0.009 ± 0.031 | N -0.059 ± 0.057 | S -0.002 ± 0.031 | M -0.03 ± 0.043 | A -0.006 ± 0.032 | E 0.025 ± 0.037
E61: S -0.026 ± 0.035 | A -0.037 ± 0.032 | Q -0.018 ± 0.045 | G -0.017 ± 0.027 | R -0.046 ± 0.028 | T -0.009 ± 0.039 | V -0.046 ± 0.03 | H -0.031 ± 0.06 | N -0.064 ± 0.051 | D 0.027 ± 0.044 | W -0.111 ± 0.036 | F -0.035 ± 0.056 | K -0.026 ± 0.041 | L -0.082 ± 0.031 | I -0.105 ± 0.055 | C -0.078 ± 0.042 | P -0.553 ± 0.044
A63: S -0.401 ± 0.036 | T -0.412 ± 0.041 | G -0.065 ± 0.025 | W -1.25 ± 0.064 | M -0.292 ± 0.041 | L -0.746 ± 0.037 | E -0.831 ± 0.047 | C -0.03 ± 0.043 | K -0.968 ± 0.086 | I -0.457 ± 0.087 | P -0.986 ± 0.062 | R -1.22 ± 0.048 | F -0.427 ± 0.07 | V -0.31 ± 0.031 | Y -1.59 ± 0.33 | Q -0.907 ± 0.063 | H -0.911 ± 0.1 | N -1.25 ± 0.2
V71: G -0.105 ± 0.026 | N -0.072 ± 0.054 | K -0.132 ± 0.044 | D -0.159 ± 0.046 | R -0.151 ± 0.026 | A -0.117 ± 0.03 | P -0.198 ± 0.043 | E -0.073 ± 0.034 | L -0.092 ± 0.034 | S -0.118 ± 0.037 | I -0.018 ± 0.067 | F -0.099 ± 0.058 | Q -0.048 ± 0.044 | H -0.21 ± 0.054 | M -0.013 ± 0.04
